Test: yeast display, Sf9 membrane polyspecificity reagent, FACS + sequencing; frameworks hold sequencing errors
Procedure, shortened: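 Nanobodies from a synthetic yeast display library (Saccharomyces cerevisiae BJ5465), induced 36–48 hours with galactose, were stained 1 hour at 4 °C with 10% biotinylated, detergent-solubilized Sf9 membrane reagent, enriched on streptavidin microbeads, then FACS-sorted. Anti-HA (expression) and streptavidin (reagent binding) fluorescence set low and high (top ~1%) gates. Polyreactivity labels come from the gate of origin. Genes were colony-PCR amplified, MiSeq 2 × 250 sequenced and filtered by CDR length.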

Row | Sequence | polyreactivity (PSR sort gate)
1 | QVQLVESGGGLVPAGGSLRLSCAASGYTFQYNDRGWYRHAPGKETELVAGISIGGSTNYADSVKGRFTISRDNAKHTVYLQMNSLKPEDTAVYYCAARTLWFPGPTSTTVGYKDGYWGQGTQVTVSS | low polyreactivity
2 | QVQLVESGGGLVQAGGSLRLSCAASGRIFYYNAMGWYRQAPGKERELVASITGSGGSTYYADSVKGRFTISRDNAKNTVYLQMNSLKPEDTAVYYCANREYLYPYYYVAKYDYWGQGTQVTVSS | low polyreactivity
3 | QVHLQESGGGLVKAGGSLRLSCAASGTISPLPAMCWYRQAPGKEREFVAGIDTGAITNYADSVKGRFTISRDNAKNTVYLQMNSLKPEDTAVYYCAFFPAAYDYYERYYTYWGQGTQVTVSC | low polyreactivity
4 | QVQLVESGGGLVQAGGSLRLSCAASGSIIAANAMGWYRQAPGKERELVAAITFDSGSTHYADSVKGRFTISRDNAKNTFYLQMNSLKPEDTAVYYCAVRDFNSDYDDWGQGTQVTVSS | low polyreactivity
5 | QVQLVESGGGLVPAGGSLRLSCAASGSTFCPYAMGWYRQAPGKERELVADITSSGGSTYYADSVKGRFTISRDNAKNTVYLQMNSLKPEDTAVYYCAADWSNLGAYDYWGQRTQVTVSS | low polyreactivity
6 | QVQLVESGGGLVQAGGSLRLSCAASGRTFAFHDRGWYRQAPGNERELVAALTSVASTYYADSVKGRFTISRDNAKNTVYLQMNSLKPEDTAVYYCAADTRSLRPRYQLYGEDSWGQGTQVTVSS | low polyreactivity
7 | QVQLVESGGGLVQAGGSLRLSCAASGSIFASYVMGWSRQAPGKERELVAAISYSDGRTYYADSVKGRFTISRDNAKNTVYLQMNSLKPEDTAVYYCAADRHARLVIGYRRLRYEYWGQGTQVTVSS | low polyreactivity
8 | QVQLVESGRGLVQEGGSLRLSCAASGRIFSAYAMGWYRQAPVKERELVAAITWSGANTDYADSVKGRFTISRDNAKNNVYLQMNSLKPEDTAVYYCNASVGRDSAYDYLGQGTQVTVSS | low polyreactivity
9 | QVQLVESGGGLVQAGGSLRLSCAASGITFYPYAMGWYRQAPGKERELVASISWSGGSTYYADSVKGRFTISRDNAKNTVYLQMNSLKPEDTAVFYCNAEYWLPYYPDYDYWGQGTQVTVSS | low polyreactivity
10 | QVQLVESGGGLVQAGGSLRLSCAASGCTFLYYMGWYRQAPGKERELVSALTFSGGSTYYADSVKGRFTISRDNAKNTVYLQMNSLKPEDTAVDDGAAGWYDWPKYLLSVYTYYLYDYWGQGSQVTVSS | low polyreactivity
11 | QVQLVESGGGLVQAGGSLRLSCAASGRTFSPYPMGWYRQAPGKERELGAAINWTGGSTYYADSVKGRFTISRDNAKNTVYLQMNSLKPEVTAVYYCNADWWYGYDYWGQGTQVTVSS | low polyreactivity
12 | QVQLVESGGGLVQAGGSLRLSCAASGRIFKSYAMGWYRQAPGKERELVAAISRGGRTNYADSVKGRFTISRDNAKNTVYLQMNSLKPEDTAFYYCAARFVVQGHSSPYDYWGQGTQVTVSS | high polyreactivity
13 | QVQLVESGGGLVQAGGSLRLSCAASGNTFRRYAMGWYRQAPGKEREFVAAISSSGGRTYYADSVKGRFTISRDNAKNTVYLQMNSLKPEDTAVYYCNAVSYWVRGEMDYWGQGTQVTVSS | high polyreactivity
14 | QVQLVESGGGLVQAGGSLRLSCAASGSIFLSNAMGWYRQAPGKERELVAAISRRGASTYYADSVKGRFTISRDNAKNTVYLQMNSLKPEDTAVYYCAARSYSAYGYNYWGQGTQVTVSS | high polyreactivity
15 | QVQLVESGGGLVQAGGSLRLSCAASGRTFGWYAMGWYRQAPGKERELVAAISTRGTRTYYADSVKGRFTISRDNAKNTVYLQMNSLKPEDTAVYYCNAKRRAVTTAHGIPEEDYWGQGTQVTVSS | high polyreactivity
16 | QVQLVESGGGLVQAGGSLRLSCAASGITFVRYAMGWYRQAPGKERELVAAINSDGNTYYADSVKGRFTISRDTAKNTVYLQLNSLKPEDTACYYCAAGQGAGVDYWGQGTQVTVSS | high polyreactivity
17 | QVQLEESGGGLVQAGGSLRLSCAASGRNFSVYAMGWYRPAPGKERELVARIRSGGSTYYADSVKGRFTISRDNAKNTVYLQMNSLKPEDTAVYYCAADGFASRWYAYYYWGQGTQVTVSS | high polyreactivity
18 | QVQLVESGGGLVQAGGSLRLSCAAYGSIFAYNAMGWYRQAPGKEREFVAVITRSDDSTYADSVTGRFTISRDNAKNTVYLQMNSLKPVDTAVYYCAAQPFVIDGGYRGDYWGQGTQVTVSS | low polyreactivity
19 | QVQLVESGGGLVQAGGSLRLSCAASGRTFFRYAMGWYRQAPGKERELVAAISSRGGSTYYADSVKGRFTISRDNAKNTVYLQMNSLKPEDTAVYYCNADAFINFILYDYWGQGTQVTVSS | high polyreactivity
20 | QVQLVESGGGLVQAGGSLRLSCGASGGIFYLYAMGWSRQAPGKERELVAAITWSADSTYYADSVKGRFTISRDNAKNTVYLQMNSLKPEDTAVYYCNADVAWQYGKGWSWDIDDYWRQGTQVTVSS | low polyreactivity
21 | HVQLVESGGGLVQAGGSLRLSCAASGSTCRYYARGWYRQAPGKERELGAAISGRGARTYYADSVKGRFTISRDNAKNTVYLQMNSLKPEDTAVYYCAAVGYRYRHSRYYWGQGTQVTVSS | high polyreactivity
22 | QVQLQESGGGLVQACGSLRLSCAASGYIFSHQYMGWYRQAPGKERELVASISPGATTNYADCVKGRFTISRDNAKNTVYLQMNSLKPEDTAVYYYAVYQILDRRLSYWGQGTQVTVSC | high polyreactivity

Row | Sequence | polyreactivity (PSR sort gate)
23 | QVQHVESGGGLVQAGGSLRLSCAASGFIFSSYAIGWYRQAPGKEREFVASIRRRGGSTYYAYSVKGRFTISRDNAKNTVILQMNRLIPEDTAVYYCAREVYRHFAPVGYDYWGQGTQVTVSS | high polyreactivity
24 | QVQLVESGGGLVQAGGSLRLSCAASGRTFRYYAMGWYRQAPGKERELVAAINRGGSTYYADSVKGRFTISRDNAKNTVYLQMNSLKPEDTAVYYCNFDKYRIVGFHSPYDYWGQGSQVTVSS | high polyreactivity
25 | QVQLVESGGGLVQAGGSLRLSCAASGLIFSNNAMGWYRQAPGKERELVAAISKSGGGTSYADSVKGRFTISRDNAKNTVYLQMNSLKPEDTAVYYCAARFRQFRVDYWGQGTQVTVSS | high polyreactivity
26 | QVQLVESGGGLVQAGGSLRISCAASGRTFVVYAMGWYRPAPGKERELVAAIRGSGGSTNYADSVKGRFTISRDNAKNTVYLQMNSLKPEDTAVYYCAATSSLGDFRYDYWGQGTQVTVSS | high polyreactivity
27 | QVQLVESGGVLVQAGGSLRLSCAASGSTFGLNAMGWYRQAPGKERELVAAITRSDITNYADSVKGRFTISRDNAKNTVYLQMNSLKPEDTAVYYCAARGLWPYDYWGQGTQVTVSS | low polyreactivity
28 | QVQLVESGGGIVQAGGSLRLSCAASGITFVAYDMGGYRQAPGKERELVAAITWNGDRTYYADSVKGRFTISRDNAKNTVYVEMNSLKPEDTAVYDCSAYHYYYEMDYWGQGTQVTVPS | high polyreactivity
29 | QVQLVESGGGLVQAGGSLRLSCAASGLTLYTYAMGWYREAPGKESELVAAISKNGGRTYYADSVKGRFTISRDNAKNTVYLQMNSLKPEDTAVYYCAARARVGTVTFDFWGQGTQVTVSS | high polyreactivity
30 | QVQLVESGGGLVQAGGSLRLSCAASGSTFTFYAMGWYRQAPGKQRELVATISSSGVSTSYADSVKGRFTISRDNAKNTVDLEMNSLKPEDTAVYYCNAGYRRRFIFDYWGQGTQVTVSS | low polyreactivity
31 | QVQLVESGGGLVQAGGSLRLSCAASGRIFYSYAMGWYREAPGKERELVAAIDESDGSTYYADSVKGRFTISRDNAKNTVYLQMNSLKQEDTADYYCNADLTLGGEFDYWGHGTQVTVSS | low polyreactivity
32 | QVQLAESGGGLVQAGGSLRLSCAASGSTSAKNVMGWYRQPPGTERELVAAISRSGGRTYYADSVKGRFTISRDNAKNTVYLQMNSLKPVDTAVYYCYTRYVKGFYWGQGTLVTVSS | high polyreactivity
33 | QVQLVESGGGLVQAGGSLRLSCAASGSIFSYYAMGWYRQAPGKERELVATISNSGVSTYYADSVKGRFTISRDNAKNTVYLQMNSLKPEDTAVYYCAKEWLYYNGFFRSYYWGQGTQVTVSS | high polyreactivity
34 | QVQLVESGGGLVQAGGSLRLSCAASGSISSVNVMGWYRQAPGKERELVAAISSGTSTHYADSVKGRFTISRDNAKNTVYLQMNSLKPEVTAVYYCNKTSFLVKLDYWGQGTQVTVSS | low polyreactivity
35 | QVQLVESGGGIVQAGGSLRLSCAASGSIFGPYAMGWYRQAPGKERELVAAITWTGGRTYYADSVKGRFTISRDNAKNTVYLQMNSLKPEDTAVYYCAADYSPSTWYLYYTLYYYWGQGTQVTVSS | low polyreactivity
36 | QVQLVGSGGGLVQAGGSLRLSCAASGLTFNWYAMGWYRQAPGKERELVASVSKRGGSTYYADSVKGRFTISRDNAKNNVYLQMNSLKPEDTAVYYCAASRYPSYDYWGQGTQVTVSS | high polyreactivity
37 | QVQVVESGGGILQAGGSLRLSCAASGSIFYTNAMGWYRQAPGKERELVAAINLRDTGTYYADSVKGRFTISRDNAKNTVYLQMNSLNPDDTAVYYCAVDVYSRRTRIRYDSWGHGTQVTVSS | low polyreactivity
38 | QVQLVESGGGLVQAGGSLRLSCAASGSIFQGYAMGWYRQAPGKERELVAAITSSGGSTYYADSVKGRFTISRDNAKNTVYLQMNSLKPEDTAVYYCAARGYSHVASRLYYYWGQGTQVTVSS | high polyreactivity
39 | QVQLVESGGGLVQAGGSLRLSCAASGRTFQKNTMGWYRQARGKEMQLVAAIDFSATTTYYADSVKGRFTISRDNAKNTVYLQMNSLKPEATAVYYCAARWSYPRWELDYWGQGTQVTVSS | high polyreactivity
40 | QVQLEESGGGLVQAGGSLRLSFAAYGRTFGTNPMGWYRQATGKERELVAAITKSSSRTYYADSVKGRFTISRDNAKNTVYLQMNSLKPEDTAVYYCAARYYAVGGYDYWGQGTQVTVSS | high polyreactivity
41 | QVQRVESGGGLFQAGGSLRLSCAASGFIFASYTMGWYRQAPGKERELVAAISRAGSTYYADSVKGRFTITRDNAKNTVYFQMNSLKPEDTAVYYCNAVSWRTSRYDYWGQGTQVTVSS | high polyreactivity
42 | QVQLVESGGGLVQAGGSLRLSCAASGFTFNYAMGWYRQAPGKERELVAAISSAGTTYYADSVKGRFTISRDNAKNTVYLQMNSLKPEDTAVYYCAALARPKQDRYRYYYWGQGTQVTVSS | high polyreactivity
43 | QVQLVESGAGLVQAGGSLLLSCAASGYIFDVYDMGWYRQAPGKERELVAAITDYADSVKGRFTISRDNAKNTVYLQMNSQKPEDTAVYYCAADTDVLKGTTGFEYWGQGTQVTVSS | low polyreactivity
